The data set addresses carcinoembryonic antigen (CEA) (UniProt P06731 35-685). Nature of the data set: electrochemical impedance spectroscopy (aptasensor); PBS; linear 0.77-14 ng/mL, LOD 0.45 ng/mL, saturated above 21 ng/mL; PBS pH 7.4 or undiluted human serum; surface blocked with 1% BSA; K3[Fe(CN)6] and KCl listed as reagents; binding temperature not stated. Conditions: protein: commercial.

Sequence of carcinoembryonic antigen (CEA) (P06731 35-685): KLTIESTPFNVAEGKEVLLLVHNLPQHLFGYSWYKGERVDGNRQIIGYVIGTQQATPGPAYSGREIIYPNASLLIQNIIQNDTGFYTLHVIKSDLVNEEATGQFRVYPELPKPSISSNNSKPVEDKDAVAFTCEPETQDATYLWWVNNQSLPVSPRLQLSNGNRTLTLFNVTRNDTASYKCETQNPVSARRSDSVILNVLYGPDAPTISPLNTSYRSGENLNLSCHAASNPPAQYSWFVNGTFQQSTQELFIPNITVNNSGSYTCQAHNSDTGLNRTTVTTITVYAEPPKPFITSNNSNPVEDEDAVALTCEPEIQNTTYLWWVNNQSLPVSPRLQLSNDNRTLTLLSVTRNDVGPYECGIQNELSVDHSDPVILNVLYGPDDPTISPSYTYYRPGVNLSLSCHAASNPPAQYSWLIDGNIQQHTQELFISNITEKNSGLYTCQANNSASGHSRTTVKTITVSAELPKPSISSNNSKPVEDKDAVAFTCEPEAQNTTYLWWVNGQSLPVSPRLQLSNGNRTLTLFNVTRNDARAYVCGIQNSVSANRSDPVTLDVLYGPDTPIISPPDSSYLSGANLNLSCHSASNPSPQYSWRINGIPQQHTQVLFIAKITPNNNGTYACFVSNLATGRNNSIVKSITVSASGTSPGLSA

For GACGATAGCGGTGACGGCACAGACGTCCCGCATCCTCCG (ssDNA, 5'-NH2) [CEA DNA aptamer], the binding result is “binds”.

These data come from paper PMC7085636, “A Graphene-PEDOT:PSS Modified Paper-Based Aptasensor for Electrochemical Impedance Spectroscopy Detection of Tumor Marker”.
